Reference: publication PMC4005694, “Archaeal aminoacyl-tRNA synthetases interact with the ribosome to recycle tRNAs” (Nucleic Acids Research, 2014)

T1: Methanothermobacter thermautotrophicus methanogenic-type seryl-tRNA synthetase (M. thermautotrophicus, UniProt O27194 1-513)
T1 construct: methanogenic-type seryl-tRNA synthetase (mSerRS) of M. thermautotrophicus; Labelled with DY-495 in the MST experiment with L12; coupled by amines to a CM5 chip in SPR; also called mSerRS; SerRS
T1 sequence (looked up): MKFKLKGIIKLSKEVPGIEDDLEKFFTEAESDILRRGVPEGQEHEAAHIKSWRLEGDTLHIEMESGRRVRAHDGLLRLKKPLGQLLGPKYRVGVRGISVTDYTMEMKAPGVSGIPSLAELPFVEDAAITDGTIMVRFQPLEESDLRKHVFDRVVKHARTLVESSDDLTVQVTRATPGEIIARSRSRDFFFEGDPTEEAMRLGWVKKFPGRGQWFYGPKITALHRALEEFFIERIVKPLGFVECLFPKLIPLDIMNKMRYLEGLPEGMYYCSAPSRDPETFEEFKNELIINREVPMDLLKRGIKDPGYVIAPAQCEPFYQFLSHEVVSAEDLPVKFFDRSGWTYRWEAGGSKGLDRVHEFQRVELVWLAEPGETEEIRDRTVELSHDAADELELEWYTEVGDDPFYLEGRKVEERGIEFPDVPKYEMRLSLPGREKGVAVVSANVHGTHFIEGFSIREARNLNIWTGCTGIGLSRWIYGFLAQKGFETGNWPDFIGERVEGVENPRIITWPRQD

T2: elongation factor EF-G of M. thermautotrophicus, found in the cross-linking experiment with 70S ribosomes (M. thermautotrophicus (endogenous in M. …, UniProt O27131 1-730))
T2 construct: EF-G of M. thermautotrophicus, Mr 81 kDa as printed; source: endogenous, in the 70S ribosome preparation from M. thermautotrophicus cells
T2 sequence (looked up): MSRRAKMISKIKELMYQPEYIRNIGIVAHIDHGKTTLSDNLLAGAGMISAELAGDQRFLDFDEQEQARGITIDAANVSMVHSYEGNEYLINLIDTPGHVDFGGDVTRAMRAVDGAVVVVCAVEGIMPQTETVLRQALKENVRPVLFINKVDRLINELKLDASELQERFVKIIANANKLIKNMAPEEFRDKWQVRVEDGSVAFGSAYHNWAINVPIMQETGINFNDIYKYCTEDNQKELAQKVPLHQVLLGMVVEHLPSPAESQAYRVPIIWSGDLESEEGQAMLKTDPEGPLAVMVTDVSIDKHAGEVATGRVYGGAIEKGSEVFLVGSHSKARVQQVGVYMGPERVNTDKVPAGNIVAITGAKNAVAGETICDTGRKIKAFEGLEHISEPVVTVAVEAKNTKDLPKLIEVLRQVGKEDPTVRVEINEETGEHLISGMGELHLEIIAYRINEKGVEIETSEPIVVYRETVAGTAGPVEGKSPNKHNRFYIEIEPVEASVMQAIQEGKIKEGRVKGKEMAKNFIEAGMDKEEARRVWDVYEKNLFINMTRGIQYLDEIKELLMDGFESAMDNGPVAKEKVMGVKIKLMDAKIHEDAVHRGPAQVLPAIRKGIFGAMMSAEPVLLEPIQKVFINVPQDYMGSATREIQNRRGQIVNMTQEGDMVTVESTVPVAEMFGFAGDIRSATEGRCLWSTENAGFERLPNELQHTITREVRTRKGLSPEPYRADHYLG

B1: recombinant ribosomal protein L12 of M. thermautotrophicus (natural protein, UniProt P05394 1-101, looked up)
chain: MEYIYAAMLLHTTGKEINEENVKSVLEAAGAEVDDARVKALIAALEDVDIEEAMETTAVAAAPAAAAAPAAAEEAEEEAEEEEEEEEAEEEAAAGLGALFG
notes: ribosomal protein L12 (P1 homologue) of M. thermautotrophicus; whole-length gene amplified from genomic DNA, cloned into pPROex-Htb via NcoI and SalI; also called P1; source: E. coli BL21 Rosetta, purified (Ni-NTA agarose)
B2: ribosomal protein L3p of M. thermautotrophicus, as it stands in the ribosome (natural protein, UniProt O26110 1-337, looked up)
chain: MARHHQPRKGSVAFSPRKRAARETPRVKSWPQVDEPGLLALAGYKAGMTHVMMVDNQKNSPTEGMEVSTPVTILEVPPLTVMAVRTYEKTSRGLKTLGEVLATETKDDLRRKLTPPADDYDQEAAIEKIRSNMEYVADVRVIVHTNPRLASVPKKKPEVFECGLGGKTPEEKFEYALEILGKDVRASEIFSEGAFVDAIAVTKGKGFQGPVKRWGIRIQYGKAARSSKGRHIGSLGPWTPSRTMWTVPQAGQMGYHRRTEYNKQILKIGDASEADLVNPDGGFVRYGLVRNDYVMIKGSVPGPTKRLVVLRKAIRAAGKQEEAPQINYISTASKQGV
notes: ribosomal protein L3 of M. thermautotrophicus, Mr 37 kDa as printed; Cross-linked while part of the ribosome; source: endogenous, in 70S ribosomes purified from M. thermautotrophicus cells
B3: recombinant ribosomal protein L3 of M. thermautotrophicus (natural protein, UniProt O26110 1-337, looked up)
chain: B2 chain
notes: ribosomal protein L3 of M. thermautotrophicus; gene inserted into pGEX-6P-2 via BamHI and EcoRI; The methods say both that the GST tag was removed and that GST-tagged proteins are appropriate for SPR; source: E. coli BL21 Rosetta, purified (GST-Sepharose)
B4: recombinant ribosomal protein L6 of M. thermautotrophicus (natural protein)
chain: not shown
notes: ribosomal protein L6 of M. thermautotrophicus; whole-length gene amplified from genomic DNA, cloned into pPROex-Htb via BamHI and SalI; source: E. coli BL21 Rosetta, purified (Ni-NTA agarose)
B5: ribosomal protein L10 (P0 homologue) of M. thermautotrophicus, as it stands in the ribosome (natural protein, UniProt O27717 1-336, looked up)
chain: MAHVAEWKKKEVQELHDLIKGYEVVGIANLADIPARQLQKMRQTLRDSALIRMSKKTLISLALEKAGRELENVDSLSDYMEGQPALIFTDMNPFKLFKILEDSKTPAPAKPGAIAPDDIVVPKGDTGFAPGPILGELQQIGIPAKIEKGKIVVSNDHVVVKAGEEIPPKVAGILTRLDIQPLEVGIDLRAAYENQTVYTADVLTIDEEKTLSDIQKAFSQAFNLSVNAVIYTRETMPAIIQKAASKSFNLAYNASILTSETTDLLLAKAYAQMLALAAAAAEINDEAVDDELKEKLSSRAAAPAPEEKEEEVEEEAEEEEEEEEEDAAAGLGALFG
notes: ribosomal protein L10 (P0 homologue) of M. thermautotrophicus, Mr 37 kDa as printed; Cross-linked while part of the ribosome; source: endogenous, in 70S ribosomes purified from M. thermautotrophicus cells
B6: recombinant ribosomal protein L10 of M. thermautotrophicus (natural protein, UniProt O27717 1-336, looked up)
chain: B5 chain
notes: ribosomal protein L10 (P0 homologue) of M. thermautotrophicus; gene inserted into pGEX-6P-2 via BamHI and SalI; The methods say both that the GST tag was removed and that GST-tagged proteins are appropriate for SPR; also called P0; source: E. coli BL21 Rosetta, purified (GST-Sepharose)
B7: Methanothermobacter thermautotrophicus arginyl-tRNA synthetase (enzyme, M. thermautotrophicus, UniProt O27496 1-560, looked up)
chain: MFRYIEKEARDSITAALEKLGIKVPPEIKLEEPPNPQLGDLASTVSFELAGKLRRAPIEITADIMSVIETPEIFETIESKGPYINFFVDYGRFSSRLLESIQDDYGSHPPRDERVILEHTSANPNGPLHIGHIRNAIIGDSLARILRMAGYDVETQYYVNDMGRQIAMIVWGLLNLDGDLEDYPGDKMDHRVGKLYFEVNQRLKENPGIRDEVDELIRKYEAGENEELFRKVVEYCLSGMEETMKRLHVHHDRFVWEGQFVRDGTVDRVIESLRKTGYTGENDVLYLDLEEFGLEKELVLTRSDGTSLYSTRDIAYHLQKSEEGDVIIDVLGSDHKLAAEQVGIAVELLGGKRPEVIFYEFITLPEGSMSTRRGVFISVDELMDEAHSRALHEVKKRRDLPDDVADDIAESIGNGAIRYYIARLSPEKHIVFRWDDALSFERGCASIQYAHARACKLLEKASFTGEEDIEDGWKPEGDERELVRLLARFPVVVEESALARRVHPVAQYAQDLANTFNSFYRSTPVIGSDFEGARLRLVDSVRKTLRNALNLLGIHAPETM
notes: arginyl-tRNA synthetase of M. thermautotrophicus; gene inserted into pPROex-Htb as a BamHI and XhoI cassette; His-tagged ArgRS is named only for the Ni-NTA SPR surface; also called ArgRS; source: E. coli BL21 Rosetta, purified (Ni-NTA agarose)

What was measured:
Details in all cases: both partners purified
[1] = biological target: T1, Methanothermobacter thermautotrophicus …; test: SPR; mSerRS amine-coupled to a CM5 chip (~800 RU), ribosomal proteins or controls as analytes; 25°C, Biacore T100, 10 µl/min; steady state affinity model
[2] = biological target: T1, Methanothermobacter thermautotrophicus …; test: MST; labelled mSerRS kept constant, unlabelled L12 titrated 0.528 nM-17.32 µM; Monolith NT.115
[3] = biological target: B7; test: cross-linking; 70S ribosomes incubated with mSerRS or ArgRS; EDC; quenched; complexes pelleted; SDS-PAGE and mass spectrometry
[4] = biological target: B7; test: SPR; ArgRS with ribosomal proteins; Ni-NTA surface used to immobilise His-tagged ArgRS, L6 or L12; which was held for which pair is not told; 25°C, Biacore T100
[5] = biological target: T2, elongation factor EF-G of M. …; test: cross-linking; 70S ribosomes incubated with mSerRS or ArgRS; EDC; quenched; complexes pelleted; SDS-PAGE and mass spectrometry

Binder | Kd [1] [nM] | binding result [4] | also measured
B1 | 170 | – | Kd [2]: 460 nM
B2 | – | – | binding result [3]: binds
B3 | 54 | binds | –
B4 | 240 | binds | –
B5 | – | – | binding result [3]: binds
B6 | 39 | binds | –
B7 | – | – | binding result [5]: binds
